According to patent publication US8084213, “Selection” (Domantis Limited):

B1: genetic element with three Arc operators (dsDNA)
DNA 1: GATCTATGATAGAAGCACTCTACTATACTCATCACGAAACGGAGGATCTATGATAGAAGCACTCTACTATACTCATCACGAAACGGAGGATCTATGATAGAAGCACTCTACTAT
DNA 2: ATAGTAGAGTGCTTCTATCATAGATCCTCCGTTTCGTGATGAGTATAGTAGAGTGCTTCTATCATAGATCCTCCGTTTCGTGATGAGTATAGTAGAGTGCTTCTATCATAGATC
B2: genetic element with four Arc operators (dsDNA)
DNA 1: GATCTATGATAGAAGCACTCTACTATACTCATCACGAAACGGAGGATCTATGATAGAAGCACTCTACTATACTCATCACGAAACGGAGGATCTATGATAGAAGCACTCTACTATACTCATCACGAAACGGAGGATCTATGATAGAAGCACTCTACTAT
DNA 2: ATAGTAGAGTGCTTCTATCATAGATCCTCCGTTTCGTGATGAGTATAGTAGAGTGCTTCTATCATAGATCCTCCGTTTCGTGATGAGTATAGTAGAGTGCTTCTATCATAGATCCTCCGTTTCGTGATGAGTATAGTAGAGTGCTTCTATCATAGATC
B3: genetic element with two Arc operators (dsDNA)
DNA 1: GATCTATGATAGAAGCACTCTACTATACTCATCACGAAACGGAGGATCTATGATAGAAGCACTCTACTAT
DNA 2: ATAGTAGAGTGCTTCTATCATAGATCCTCCGTTTCGTGATGAGTATAGTAGAGTGCTTCTATCATAGATC

Assays:
scArc-Vk(E5)-HA [1] = target: T1, scArc-Vk(E5)-HA (Phage P22 / human Vk); test: plateau at 3-4 operators; details: tags: C-terminal Vk(E5) dAb fusion, chain copies: 2 scArc per operator (stated)
Experimental: (§1) Tubes from Strep Thermofast 96-well plates are coated by applying 2 µl of 0.05 mg/ml biotinylated rat anti-HA mAb (clone 3F10, Roche), 0.2 µl of 0.5 mg/ml biotinylated protein L (Pierce), 1 µl of biotinylated 1 mg/ml β-galactosidase or 0.1 µl of 5 mg/ml biotinylated BSA (Sigma) respectively in 50 µl aliquots of PBS and incubating for 3 hours at room temperature. The monoclonal high-affinity α-HA mAb 3F10 recognises the C-terminal HA tag, β-galactosidase and protein L can be expected to interact with the $V_\kappa$(E5) light chain domain, while BSA serves as the negative control. At the end of the incubation the coating solution is removed and the first blocking solution consisting of 150 µl of 10 ng/ml biotinylated BSA (Sigma) in PBS is added to the wells and incubated for 15 minutes. At the end of the incubation the wells are washed three times with 150 µl of PBS and blocked additionally for 30 min at room temperature with buffer C+.
(§2) 25 µl S30 in vitro translation reactions (EcoPro T7, Novagen) are assembled according to the manufacturer's instructions and supplemented with 1.5 µl of 1.7 mM PCR-amplified template in 0.1 mg/ml RNA and 0.75 µl of 100 mM oxidized glutathione. […]
(§3) The PCR amplification products are analysed by 1% agarose gel electrophoresis in TAE in the presence of ethidium bromide and imaged using GeneGeius Bio Imaging System (Syngene). […]

Vk(E5)-scArc-HA [2] = target: T2, Vk(E5)-scArc-HA (Phage P22 / human Vk); test: recovery reaches plateau at 3-4 operators; details: tags: N-terminal Vk(E5) dAb fusion, C-terminal HA; chain copies: 2 scArc per operator (stated)
Experimental: as §1, §2, §3

[3] = target: scFv(31IJ1)-(KEAAA)6-scArc-HA (Phage P22 / human scFv?); test: recovery improves with operator number; details: tags: N-terminal scFv fusion, C-terminal HA; chain copies: 2 scArc per operator (inferred)
Experimental: In the solution expression experiments 3 µl of 1.7 nM PCR-amplified pIE7aA, pIE7a2A, pIE7a3A, pIE7a4A, pIE7aA-scFv(31IJ1), pIE7a2A-scFv(31 Ul), pIE7a3A-scFv (31IJ1) or pIE7a4A-scFv(31IJ1) template in 0.2 mg/ml tRNA is added to 25 µl EcoPro T7 in vitro translation mix (Novagen), supplemented with 0.75 µl of 100 mM oxidized glutathione (Sigma) and 0.25 µl […] 3F10 αHA mAb (Roche). Each reactions is split into three 9 µl aliquots. Two of the three in vitro translation aliquots of pIE7aA-scFv(31IJ1), pIE7a2A-scFv(31IJ1), pIE7a3A-scFv(31IJ1) or pIE-7a4A-scFv(31IJ1) are immediately combined with the aliquots of pIE7aA, pIE7a2A, pIE7a3A or pIE7a4A expression reactions respectively, one before and the other after the four-hour incubation at 25° C.
During the translation reaction the streptavidin-coated PCR tubes, cut from Strep Thermofast 96-well plates (Abgene), are first incubated at room temperature for three hours with 50 µl of at least 40 nM biotinylated protein A (Sigma), protein L (Pierce) fluorescein (Molecular Probes) of BSA (Sigma) in PBS. The coating buffer is thereafter removed and any remaining free biotin-binding sites are blocked with a 15 min pulse of 50 µg/ml biotinylated BSA in PBS. The pre-coated wells are thereafter three times washed with PBS and then filled with 100 µl of binding buffer C+ (100 mM KCl, 20 mM Tris, 5 mM MgCl2, 0.05% Tween 20, 0.05 mM EDTA, 1% BSA).
Upon completion of the translation reaction the products are diluted in Buffer C+ and applied to the pre-coated and blocked PCR tubes, allowed to bind for 30 min at room temperature and washed 4 times with 150 µl of Buffer C+. The retained genetic elements are amplified with PCR using a nested set of primers AS79/AS80 and a 30-cycle PCR protocol 30X60C2M. In 30X60C2M protocol 50 µl PCR reactions contain 200 µM each of dATP dTTP dGTP dCTP (Amersham), 300 nM forward and reverse primers AS13+ AS19 and 1 U of SuperTaq DNA polymerase (HT Biotechnology) in 1× polymerase Buffer (HT Biotechnology). […]

scArc-Vk(E5)-HA [4] = target: T1, scArc-Vk(E5)-HA; test: stable linkage even without anti-HA mAb; details: tags: C-terminal Vk(E5) dAb fusion, chain copies: 2 scArc per operator (stated)
Vk(E5)-scArc-HA [5] = target: T2, Vk(E5)-scArc-HA; test: recovery increases with operator number; complex stabilised by 3.4 nM anti-HA mAb 3F10; details: tags: N-terminal Vk(E5) dAb fusion, C-terminal HA; chain copies: 2 scArc per operator (stated)

Binder | binding result (scArc-Vk(E5)-HA [1]) | binding result (Vk(E5)-scArc-HA [2]) | binding result [3] | binding result (scArc-Vk(E5)-HA [4]) | binding result (Vk(E5)-scArc-HA [5])
B1 | binds | binds | binds |  | 
B2 |  |  | binds |  | 
B3 |  |  | binds | binds | binds
